{
  "source": "patent US20230304023A1",
  "about": "“BILE SALTS B[…] USE THEREOF FOR DIAGNOSTIC AND T[…]” (INSERM (INSTITUT NATIONAL DE LA SANTÉ ET DE LA RECHERCHE …, priority 2020, published 2023)",
  "key": {"[1]": {"test_system": "bile salts", "assay": "Specificity testing of the CadC-TcpP bactosensor across a panel of twelve bile salts"}, "[2]": {"test_system": "bile salts", "type": "cell-based, E. coli", "conditions": "kinetic analysis, data not shown"}, "[3]": {"test_system": "Taurocholic acid", "type": "cell-based, E. coli"}},
  "data": [
    {"molecule": "TcpPwt: Wild-type V. cholerae TcpP bile salt sensing domain, loop NYEQ (SEQ ID NO:4/24), fused to E. coli CadC DNA binding domain (SEQ ID NO:48) (protein, Synthetic bile salts chimeric receptor) MQQPVVRVGEWLVTPSINQISRNGRQLTLEPRLIDLLVFFAQHSGEVLSRDELIDNVWKRSIVTNHVVTQSISELRKSLKDNDEDSPVYIATVPKRGYKLMVPVIWYSEEEGEEIMLSSPPPIPEAVPATDSPSHSLNIQNTATPPEQSPVKSKRVVPYLVFSALYVALLPVIWWSYGQWYQHELAGITHDLRDLARLPGITIQKLSEQKLTFAIDQHQCSVNYEQKTLECTKN", "values": [
      {"measurement": "response to secondary bile salts", "setting": "[1]", "value": "did not respond"},
      {"measurement": "specificity across bile salts", "setting": "[1]; primary and secondary types", "value": "highly specific for primary conjugated bile salts"}
    ]},
    {"molecule": "SV_3-3-18: TcpP bile salt sensing domain variant, loop VFSD (SEQ ID NO:10/30), CadC fusion SEQ ID NO:54; best engineered variant (protein, Synthetic bile salts chimeric receptor) MQQPVVRVGEWLVTPSINQISRNGRQLTLEPRLIDLLVFFAQHSGEVLSRDELIDNVWKRSIVTNHVVTQSISELRKSLKDNDEDSPVYIATVPKRGYKLMVPVIWYSEEEGEEIMLSSPPPIPEAVPATDSPSHSLNIQNTATPPEQSPVKSKRVVPYLVFSALYVALLPVIWWSYGQWYQHELAGITHDLRDLARLPGITIQKLSEQKLTFAIDQHQCSVVFSDKTLECTKN", "values": [
      {"measurement": "response speed at low ligand concentration compared to wt TcpP", "setting": "[2]", "value": "faster response at low ligand concentration"}
    ]},
    {"molecule": "SV_3-3-16: TcpP bile salt sensing domain variant, loop DFLT (SEQ ID NO:9/29), CadC fusion SEQ ID NO:53 (protein, Synthetic bile salts chimeric receptor) MQQPVVRVGEWLVTPSINQISRNGRQLTLEPRLIDLLVFFAQHSGEVLSRDELIDNVWKRSIVTNHVVTQSISELRKSLKDNDEDSPVYIATVPKRGYKLMVPVIWYSEEEGEEIMLSSPPPIPEAVPATDSPSHSLNIQNTATPPEQSPVKSKRVVPYLVFSALYVALLPVIWWSYGQWYQHELAGITHDLRDLARLPGITIQKLSEQKLTFAIDQHQCSVDFLTKTLECTKN", "values": [
      {"measurement": "EC50", "setting": "[3]; taurocholic acid (TCA) as ligand, GFP output", "value": 42.1, "unit": "µM"},
      {"measurement": "Max fold change", "setting": "[3]; taurocholic acid titration", "value": 75.73}
    ]}
  ]
}
